According to PMC3627587:
Read-outs that look alike come from different tables or passages of the source.

How the values were obtained:
sIHF [1] = molecular target: T1, sIHF (Streptomyces coelicolor, UniProt Q9KXR9 1-107); assay: EMSA
T1 sequence: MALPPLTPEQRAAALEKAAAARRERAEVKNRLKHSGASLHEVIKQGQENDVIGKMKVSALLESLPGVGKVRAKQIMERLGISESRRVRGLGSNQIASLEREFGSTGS

sIHF [2] = molecular target: T1, sIHF; assay: EMSA; remark: listed apart in the source

Binder	binding result (sIHF [1])	binding result (sIHF [2])
19-bp duplex (20bp OH1/OH2) (dsDNA) DNA 1: GAGGGAGTGCGTGGGTCTGA DNA 2: CTCAGACCCACGCACTCCCT	binds	
60-bp dsDNA (dsDNA) DNA 1: CGTACGCGTCGCCACGGCGGCGGCATCGTCCACGAGAACACCCGCCACACCACCCGCTTC DNA 2: GAAGCGGGTGGTGTGGCGGGTGTTCTCGTGGACGATGCCGCCGCCGTGGCGACGCGTACG		binds
43-bp dsDNA (dsDNA) DNA 1: ACCAGGTGGTTGCCGATCACCACGAAGCGGGTGGTGTGGCGGG DNA 2: CCCGCCACACCACCCGCTTCGTGGTGATCGGCAACCACCTGGT		binds
